Experimental findings from publication doi:10.1101/2025.09.11.675134, “Biodistribution-Driven Discovery Identifies a Glycosidase-Cleavable Linker to Reprogram Radiotheranostics” (bioRxiv, 2025) are described below.

The structures appear in SMILES notation. Like-named read-outs stand apart in the source and are kept apart here. Positions of bridges follow the written chain, without caps; N, C: chain ends. Non-standard residues stand in square brackets, D forms with d. Residues, ends and D or L forms follow the SMILES beside them. *: point of attachment. X1 = C[C@H](CCC(=O)*)[C@H]1CC[C@H]2[C@@H]3[C@H](O)C[C@@H]4C[C@@H](NC(=O)CNC(=O)CN5CCN(CC(=O)O)CCN(CC(=O)O)CCN(CC(=O)O)CC5)CC[C@]4(C)[C@H]3C[C@H](O)[C@]12C; DOTA = O=C(O)CN1CCN(CC(=O)O)CCN(CC(=O)*)CCN(CC(=O)O)CC1

A short description of this series: Ex vivo biodistribution screen of 111In-labeled DOTA-TATE derivatives in normal mice. More on the design: species or system athymic nude mice. Particulars: 2 h post-injection; for tissue uptake at 2 h: athymic nude, mouse, iv, 1 ug per mouse, total radioactivity; for Relative kidney retention, % rel. to DOTA-TATE: normal mice, 111In-DOTA-TATE set as 100%. As for the experimental part:
The panel of 10 compounds were then tested in an initial biodistribution screen of 9 organs assessed in non-tumor-bearing mice at specific timepoints following administration of the radioconjugates. Each agent was initially labeled with ^111In, a long-lived gamma-emitting radioisotope suitable for biodistribution studies, with high radiochemical yields and purity (Fig. S12). The compounds were then dosed (1.55 ± 0.12 MBq; 1 μg per mouse) in healthy athymic nude mice via intravenous (i.v.) injection in phosphate-buffered saline (PBS; vehicle). After 2 hours, the mice were sacrificed and ex vivo biodistribution analysis was performed (Fig. 2). […] This was an expected finding because this variant was designed to bind serum albumin.
Radiolabeling and In Vivo Evaluation of DOTA-TATE Variants:
Biodistribution, PET Quantification, and Dosimetry
Radiolabeling: To perform the initial biodistribution screen, radiolabeling of 10 compounds, including DOTA-TATE, was carried out using 111In (Cardinal Health, Arbutus, MD, USA), an affordable and readily available gamma -emitting radioisotope with a moderate half -life (2.83 days), which affords efficient DOTA radiolabeling and facilitates handling. 111InCl3 (28 – 36 MBq) was diluted with 0.4 M NH 4OAc buffer (pH 5.2) and combined with DOTA -TATE variants (20 μg). The solution was mixed well and then incubated at 90 °C for 30 min.
Radiolabeling efficiency and radiochemical purity were determined by radio -TLC and radio - HPLC. Radiochemical yield was >95% and the material was used without further purification.
The specific activity was 1.55 ± 0.12 TBq/g (41.9 ± 3.2 Ci/g). […]
Radio-instant thin-layer chromatography (radio-iTLC) was performed using silicic acid-impregnated glass microfiber paper strips (iTLC-SA, Varian, Lake Forest, CA, USA) as the stationary phase, and 50 mM EDTA in 100 mM NH4OAc (pH 5.5) as the mobile phase, analyzed with a radio-TLC scanner (AR-2000, Eckert-Ziegler, Wilmington, MA, USA). For Ac-225, equilibration was allowed for at least 12 hours before scanning the TLC strips to confirm initial scans. Radio-HPLC analysis (Agilent 1260 Infinity II, Agilent Technologies Inc., Santa Clara, CA, USA) was conducted on a TSK- Octadecyl-4PW column (5 µm, 4.6 mm ID × 15 cm, Tosoh
Co. Tokyo, Japan) with gradient elution using 0.1% trifluoroacetic acid in water as mobile phase A and 0.1% trifluoroacetic acid in acetonitrile as Mobile phase B. The elution sequence was 0-5 […]
PET imaging and biodistribution: For initial biodistribution screen studies, normal mice were administered 1.4 – 1.8 MBq (1 μg) of 111In-DOTA-TATE variants via tail vein injection and biodistribution studies were conducted at 2 hours post -injection (n = 2 – 4 per cohort).
For studies involving three variants (DOTA -TATE, DOTA-MVK(ε)-TATE, and DOTA-β-Gal-TATE), AR42J cells (5 × 10^6 cells per mouse) were subcutaneously inoculated into the right shoulder of the mice. Tumors were allowed to grow for 3 weeks, reaching a volume of 100 –200 mm³ before being used in subsequent experiments. For biodistribution or PET imaging studies, mice bearing subcutaneous AR42J tumors were administered 1.4 – 1.8 MBq (1 μg) of 111In-labeled DOTA-TATE variants or 2.7 – 4.9 MBq (1 μg) of 86Y-labeled DOTA-TATE variants via tail vein injection. Biodistribution studies with 111In-labeled DOTA -TATE variants were performed 1 hour post -injection (n = 3 per cohort), while studies with 86Y-labeled DOTA-TATE variants were conducted at 1, 4, and 24 hours post -injection (n = 3 per cohort). Mice were euthanized by CO2 asphyxiation, and 10 tissues, including tumors, were collected. All samples were weighed and counted on a gamma counter (2480 Wizard 3, Perkin Elmer Inc., Waltham, MA, USA). Results are presented as percentage of injected activity per gram (%IA/g) and mean values ± standard deviations.
PET imaging to assess the uptake of three 86Y-labeled DOTA-TATE variants (2.7 – 4.9 MBq, 1 […]

Where [1] appears, read: blood, normal athymic nude mice, i.v. 1 μg (1.4–1.8 MBq), ex vivo gamma counting, mean, n = 2–4, read-out: Blood uptake.
The mark [2] stands for this setting: kidney, normal athymic nude mice, i.v. 1 μg, ex vivo, mean (± SD), n = 2–4, read-out: Kidney uptake.
Where [3] appears, read: femur, normal athymic nude mice, i.v. 1 μg, ex vivo, mean, n = 2–4, read-out: Femur uptake.
Where [4] appears, read: heart, normal athymic nude mice, i.v. 1 μg, ex vivo, mean, n = 2–4, read-out: Heart uptake.
The mark [5] stands for this setting: intestine, normal athymic nude mice, i.v. 1 μg, ex vivo, mean, n = 2–4, read-out: Intestine uptake.
The mark [6] stands for this setting: liver, normal athymic nude mice, i.v. 1 μg, ex vivo, mean, n = 2–4, read-out: Liver uptake.
Setting [7] is: lung, normal athymic nude mice, i.v. 1 μg, ex vivo, mean, n = 2–4, read-out: Lung uptake.
The mark [8] stands for this setting: muscle, normal athymic nude mice, i.v. 1 μg, ex vivo, mean, n = 2–4, read-out: Muscle uptake.
Where [9] appears, read: spleen, normal athymic nude mice, i.v. 1 μg, ex vivo, mean, n = 2–4, read-out: Spleen uptake.

Turning to `C[C@H](CCC(=O)NCC(=O)N[C@H](Cc1ccccc1)C(=O)N[C@H]1CSSC[C@@H](C(=O)N[C@H](C(=O)O)[C@@H](C)O)NC(=O)[C@H]([C@@H](C)O)NC(=O)[C@H](CCCCN)NC(=O)[C@@H](Cc2c[nH]c3ccccc23)NC(=O)[C@H](Cc2ccc(O)cc2)NC1=O)[C@H]1CC[C@H]2[C@@H]3[C@H](O)C[C@@H]4C[C@@H](NC(=O)CNC(=O)CN5CCN(CC(=O)O)CCN(CC(=O)O)CCN(CC(=O)O)CC5)CC[C@]4(C)[C@H]3C[C@H](O)[C@]12C` [DOTA-G-Chol-G-TATE] (X1-G[dF]CY[dW]KTCT-OH; disulfide 3-8), the tissue uptake at 2 h by setting is: under setting [1], 1.7 %ID/g; under setting [2], 9.6 %ID/g.
For the compound `C[C@@H](O)[C@H](NC(=O)[C@@H]1CSSC[C@H](NC(=O)[C@@H](Cc2ccccc2)NC(=O)CNC(=O)[C@H](CC(=O)O)NC(=O)[C@H](CC(=O)O)NC(=O)[C@H](CC(=O)O)NC(=O)CNC(=O)CN2CCN(CC(=O)O)CCN(CC(=O)O)CCN(CC(=O)O)CC2)C(=O)N[C@@H](Cc2ccc(O)cc2)C(=O)N[C@H](Cc2c[nH]c3ccccc23)C(=O)N[C@@H](CCCCN)C(=O)N[C@@H]([C@@H](C)O)C(=O)N1)C(=O)O` [DOTA-GDDDG-TATE] ({DOTA}-GDDDG[dF]CY[dW]KTCT-OH; disulfide 7-12), under setting [2], the tissue uptake at 2 h came to 13 %ID/g.
On the same count and under the same terms, the same measure for `CSCC[C@H](NC(=O)CN1CCN(CC(=O)O)CCN(CC(=O)O)CCN(CC(=O)O)CC1)C(=O)N[C@H](C(=O)N[C@@H](CCCCNC(=O)CCCC(=O)N[C@H](Cc1ccccc1)C(=O)N[C@H]1CSSC[C@@H](C(=O)N[C@H](C(=O)O)[C@@H](C)O)NC(=O)[C@H]([C@@H](C)O)NC(=O)[C@H](CCCCN)NC(=O)[C@@H](Cc2c[nH]c3ccccc23)NC(=O)[C@H](Cc2ccc(O)cc2)NC1=O)C(=O)O)C(C)C` [DOTA-MVK(ε)-TATE]: 4 %ID/g; for `CSCC[C@H](NC(=O)CN1CCN(CC(=O)O)CCN(CC(=O)O)CCN(CC(=O)O)CC1)C(=O)N[C@H](C(=O)N[C@@H](CCCCN)C(=O)N[C@H](Cc1ccccc1)C(=O)N[C@H]1CSSC[C@@H](C(=O)N[C@H](C(=O)O)[C@@H](C)O)NC(=O)[C@H]([C@@H](C)O)NC(=O)[C@H](CCCCN)NC(=O)[C@@H](Cc2c[nH]c3ccccc23)NC(=O)[C@H](Cc2ccc(O)cc2)NC1=O)C(C)C` [DOTA-MVK-TATE] ({DOTA}-MVK[dF]CY[dW]KTCT-OH; disulfide 5-10): 76 %ID/g.
As for `C[C@@H](O)[C@H](NC(=O)[C@@H]1CSSC[C@H](NC(=O)[C@@H](Cc2ccccc2)NC(=O)CN2CCN(CC(=O)O)CCN(CC(=O)O)CCN(CC(=O)O)CC2)C(=O)N[C@@H](Cc2ccc(O)cc2)C(=O)N[C@H](Cc2c[nH]c3ccccc23)C(=O)N[C@@H](CCCCN)C(=O)N[C@@H]([C@@H](C)O)C(=O)N1)C(=O)O` [DOTA-TATE, reference compound], the tissue uptake at 2 h under setting [2] was 6.1 %ID/g.
`C[C@@H](O)[C@H](NC(=O)[C@@H]1CSSC[C@H](NC(=O)[C@@H](Cc2ccccc2)NC(=O)CCCC(=O)Nc2cc(COC(=O)N(C)CCNC(=O)CN3CCN(CC(=O)O)CCN(CC(=O)O)CCN(CC(=O)O)CC3)ccc2O[C@@H]2O[C@H](CO)[C@H](O)[C@H](O)[C@H]2O)C(=O)N[C@@H](Cc2ccc(O)cc2)C(=O)N[C@H](Cc2c[nH]c3ccccc23)C(=O)N[C@@H](CCCCN)C(=O)N[C@@H]([C@@H](C)O)C(=O)N1)C(=O)O` [DOTA-β-Gal-TATE]: the tissue uptake at 2 h (in vivo, normal athymic nude mice, i.v. 1 μg, ex vivo, mean (± SD), n = 2–4, read-out: Kidney uptake) stood at 4.1 %ID/g.
Turning to `C[C@H](CCC(=O)NCC(=O)N[C@H](Cc1ccccc1)C(=O)N[C@H]1CSSC[C@@H](C(=O)N[C@H](C(=O)O)[C@@H](C)O)NC(=O)[C@H]([C@@H](C)O)NC(=O)[C@H](CCCCN)NC(=O)[C@@H](Cc2c[nH]c3ccccc23)NC(=O)[C@H](Cc2ccc(O)cc2)NC1=O)[C@H]1CC[C@H]2[C@@H]3[C@H](O)C[C@@H]4C[C@@H](NC(=O)CNC(=O)CN5CCN(CC(=O)O)CCN(CC(=O)O)CCN(CC(=O)O)CC5)CC[C@]4(C)[C@H]3C[C@H](O)[C@]12C` [^111In-DOTA-Chol-TATE, metal not drawn] (X1-G[dF]CY[dW]KTCT-OH; disulfide 3-8), the “Relative kidney retention, % rel. to DOTA-TATE” value stood at 159%. Under setting [3], the tissue uptake at 2 h stood at 0.36 %ID/g. Besides, the tissue uptake at 2 h under setting [4] was found to be 0.55 %ID/g. The tissue uptake at 2 h under setting [5] stood at 0.83 %ID/g. For the same compound, under setting [6], the tissue uptake at 2 h turned out to be 1.32 %ID/g. Further, the tissue uptake at 2 h under setting [7] amounted to 1.86 %ID/g. Under setting [8], the tissue uptake at 2 h was 0.15 %ID/g. Also, the tissue uptake at 2 h under setting [9] amounted to 0.48 %ID/g.
Consider `C[C@@H](O)[C@H](NC(=O)[C@@H]1CSSC[C@H](NC(=O)[C@@H](Cc2ccccc2)NC(=O)CNC(=O)[C@H](CC(=O)O)NC(=O)[C@H](CC(=O)O)NC(=O)[C@H](CC(=O)O)NC(=O)CNC(=O)CN2CCN(CC(=O)O)CCN(CC(=O)O)CCN(CC(=O)O)CC2)C(=O)N[C@@H](Cc2ccc(O)cc2)C(=O)N[C@H](Cc2c[nH]c3ccccc23)C(=O)N[C@@H](CCCCN)C(=O)N[C@@H]([C@@H](C)O)C(=O)N1)C(=O)O` [^111In-DOTA-GDDDG-TATE, metal not drawn] ({DOTA}-GDDDG[dF]CY[dW]KTCT-OH; disulfide 7-12), for which the “Relative kidney retention, % rel. to DOTA-TATE” value turned out to be 222%. For the same compound, the tissue uptake at 2 h under setting [1] worked out at 0.05 %ID/g. The tissue uptake at 2 h under setting [3] is 0.07 %ID/g. Also, under setting [4], the tissue uptake at 2 h worked out at 0.04 %ID/g. For the same compound, the tissue uptake at 2 h under setting [5] came to 0.11 %ID/g. Further, the tissue uptake at 2 h under setting [6] was found to be 0.07 %ID/g. Further, the tissue uptake at 2 h under setting [7] came out at 0.25 %ID/g. Besides, under setting [8], the tissue uptake at 2 h was found to be 0.02 %ID/g. Also, the tissue uptake at 2 h under setting [9] is 0.05 %ID/g. For the same compound, under “normal athymic nude mice, i.v. 1 μg, ex vivo, mean (± SD), n = 2–4”, the Kidney uptake is 13.45 %IA/g.
